# Data published in patent US12098378B2, “Anti-fungal polypeptides” (priority 2020, dated 2024).
# Positions count from the first letter of the chain named. Names and notes keep the numbering of the source.
# B1: 10G11Q: VHH polypeptide, SEQ ID NO: 1, begins with a Q residue (protein)
# VHH: QVQLVESGGGLVQAGGSLRLSCAASRSIFSINAMDWYRQAPGKQREWVAGITRGGTTKYADSVKGRFTISRDNAKKKVYLQMNSLKPEDTAVYYCNVLRGEQPWTRDYWGQGTQVTVSS
# B2: Mutant 7: 10G11 charge variant: W100aH and T100bH substitutions in CDR3 (SEQ ID NO: 13) (protein)
# VHH: B1 VHH with Q1D, W104H, T105H
# B3: Mutant 9: 10G11 charge variant: S27K, I28K and S30K substitutions in CDR1 (SEQ ID NO: 15) (protein)
# VHH: B1 VHH with Q1D, S27K, I28K, S30K
# B4: Mutant 11: 10G11 charge variant: S27K, I28K, S30K in CDR1 and W100aK, T100bK in CDR3 (SEQ ID NO: 17) (protein)
# VHH: B1 VHH with Q1D, S27K, I28K, S30K, W104K, T105K
# B5: Mutant 10: 10G11 charge variant: W100aK and T100bK substitutions in CDR3 (SEQ ID NO: 16) (protein)
# VHH: B1 VHH with Q1D, W104K, T105K
# B6: Mutant 6: 10G11 charge variant: S27H, I28H and S30H substitutions in CDR1 (SEQ ID NO: 12) (protein)
# VHH: B1 VHH with Q1D, S27H, I28H, S30H
# B7: Mutant 8: 10G11 charge variant: S27H, I28H, S30H in CDR1 and W100aH, T100bH in CDR3 (SEQ ID NO: 14) (protein)
# VHH: B1 VHH with Q1D, S27H, I28H, S30H, W104H, T105H
# B8: 10G11Q-His: 10G11Q polypeptide with a C-terminal addition of a 6× His-Tag (SEQ ID NO: 148) (protein)
# VHH: QVQLQESGGGLVQAGGSLRLSCAASRSIFSINAMDWYRQAPGKQREWVAGITRGGTTKYADSVKGRFTISRDNAKKKVYLQMNSLKPEDTAVYYCNVLRGEQPWTRDYWGQGTQVTVSSAAAHHHHHH
# modifications: C-terminal 6xHis tag
# B9: 12C03Q: VHH polypeptide, SEQ ID NO: 5 (protein)
# VHH: QVQLQESGGGLVQAGDSLRLSCAASISDRAFSRHVMGWFRQPPGKEREFVAAIGWTGRRTYYADSVKGRFTISRDNAMNTVYLQMNSLKPEDTAVYYCAASHFYSVSFEINDYDYWGQGTQVTVSS
# B10: 41D01: anti-glucosylceramide binding VHH described in WO2014/177595 A1 and WO2014/191146 A1 (protein)
# VHH: QVQLQESGGGLVQAGGSLRLSCAASGRTFSRYGMGWFRQLPGKQRELVTSITRGGTTTYADSVKGRFTISRDNAKNTVYLQMNSLKPEDTAVYYCNARSIWRDYWGQGTQVTVSS
# modifications: left off: small tags and cut ends
# B11: 10E11Q: VHH polypeptide, SEQ ID NO: 3 (protein)
# VHH: QVQLQESGGGLVQAGGSLRLSCAASGTIFRPTAMGWYRQAPGKERELVATITTGGSTKYADSVKGRFTISRGNAKNTVYLQMSSLKPEDTAVYYCNAQWGVRTRDYWGQGTQVTVSS
# Legend:
# Botrytis cinerea R16 [1] = experiment: In vitro antifungal assay, IncuCyte Zoom monitoring of fungal growth from spore suspension; format: cell-based
# Protocol: (§1) Two-fold dilutions of purified VHH 10G11Q were prepared in 96-well microtiter plates. To 20 μl of these dilutions and to 20 μl of water as a control, 80 μl of fungal spore suspension (1 E+05 spores/ml in half strength potato dextrose broth (PDB)) were added, starting with a final VHH 10G11Q concentration of 10 μM. The test plates were incubated for 36 h at 25° C. using the IncuCyte Zoom live cell imaging system. All tests were performed in at least 2 replicates.
# as §1, with “VHH 10G11Q and 41D01 were prepared” for “VHH 10G11Q were prepared”, “concentration of 40 μM. The” for “concentration of 10 μM. The”, “incubated for 48 h at” for “incubated for 36 h at”
# Microplate graphs were generated using the time plot feature in the graph/export menu of the IncuCyte® Base Analysis Software. Raw data for confluence of treated samples at mid log growth were exported to GraphPad Prism 8 and plotted as a semi logarithmic function of the standard concentrations. IC50 values are extrapolated after fitting the data with a four-parameter logistic regression curve. Pathogen sensitivity is measured based on the IC50, which refers to the concentration (μM) that inhibits 50% of spore germination and/or mycelial growth.
# [2] = tested on: Colletotrichum orbiculare; experiment: Control of anthracnose on squash in glasshouse; format: in vivo; settings: 175, 350, 700 g ai/ha, 4 applications; until 2 weeks after the last application; vs non-treated inoculated control (FIG. 18)
# Protocol: Four replicates of pot-grown squash plants (2 plants/pot) were sprayed with 125 ml aqueous suspension, containing a concentration of active ingredient as described in Table 2. Four applications were done spaced 6 or 7 days apart. Plants were inoculated once with Colletotrichum orbiculare two days after the first application (application A) of active ingredient. The efficacy of 10G11Q was compared to that of a non-treated control and the chemical reference Bravo WS (Chlorothalonil).
# Disease severity is recorded as percent severity on a scale of 0-100%. Recording started when first symptoms appeared followed by regular assessment till 2 weeks after the fourth application (application D) of the active ingredient.
# Botrytis cinerea R16 [3] = experiment: Prolonged incubation antifungal assay followed over 14 days; format: cell-based; settings: followed over a period of 14 days (FIG. 9)
# Protocol: as §1, with “The test plates were incubated for 36 h at 25° C. using the IncuCyte Zoom live cell imaging system.” left out
# Fraction 3 = experiment: ELISA with biotinylated liposomes on streptavidin-coated plates; format: binding, Botrytis cinerea; settings: screen for additional Fraction 3 binders (FIG. 13)
# Excerpt: Dissociation constants (Kd) can be estimated based on the results of an ELISA. In equilibrium analysis as in ELISA, the Kd can be calculated from the equilibrium binding response. Where the ELISA plate wells are coated with a target antigen, and where the target antigen may be a lipid-containing fraction of the membrane of Botrytis cinerea, such a method may further use a range of concentrations of a polypeptide binding the target antigen. Where the ELISA generally provides a quantitative adsorption measure for each polypeptide concentration representing binding of the polypeptide to the target antigen, the range of concentration of a polypeptide may for example be 0.5, 1, 2.5, 5, and 10 μM. The most suitable range of concentrations used can vary depending on the affinity of the polypeptide to the target antigen. The corresponding absorption values as determined by ELISA may result in a sigmoid curve when absorption values are plotted against the logarithmic conversion of the polypeptide concentrations. This sigmoid curve may serve to define an IC50 value. Where this IC50 is the concentration of polypeptide where the corresponding absorption value is 50% of the saturated value as estimated by the maximum of the sigmoidal function, the Kd can be estimated by 1/Ka were the association constant (Ka) can be estimated as 1/IC50. Thus Kd corresponds to the analyte concentration that reaches equilibrium at 50% binding saturation. Commonly computation methods can be used for these calculations. For example, this can be done using GraphPad. In some embodiments, the Kd may be determined by surface plasmon resonance (SPR).
# The above-mentioned method for the formation of liposomes (Example 12) was modified with the addition of a biotinylated lipid (12:0 Biotinyl M G (1-(12-N-biotin)aminododecanoyl-rac-glycerol), Sigma Aldrich), to allow for use of these liposomes for ELISA using streptavidin-coated plates (Pierce™ Streptavidin Coated High Capacity Plates, Clear, 96-Well, blocked with SuperBlock™ Buffer, Thermo Fisher Scientific).
# To estimate the dissociation constant Kd value of 10G11 binding to Fraction 3, the ELISA set-up with biotinylated liposomes from Fraction 3 as described in Example 13 was used. 10G11 polypeptide was added in the following concentrations: 0.5, 1, 2.5, 5, and 10 μM, prepared by a serial dilution in phosphate buffer. […] This plot was used to estimate the Kd dissociation constant using GraphPad. Where non-linear regression fitting was used.
# Botrytis cinerea R16 [4] = settings: several test strains, including Botrytis cinerea R16; WO2014/177595 A1 and WO2014/191146 A1; cited from earlier work
molecule,measurement,setting,value
B1,% fungal growth (total green object area) in function of VHH concentration,"Botrytis cinerea R16 [1]; two-fold dilutions from 10 μM, 36 h at 25° C. (FIG. 1)",clear dose-dependent growth inhibition pattern
same,growth inhibition compared to VHH 41D01,"Botrytis cinerea R16 [1]; two-fold dilutions from 40 μM, 48 h at 25° C. (FIG. 2)",more prominent growth inhibition pattern
same,percent severity of anthracnose on squash,[2],clear and dose-related growth inhibition pattern
B2,antifungal activity of charge variants relative to 10G11,Botrytis cinerea R16 [1]; assay as in Example 5 (FIG. 6),on par antifungal activity with 10G11
B3,antifungal activity of charge variants relative to 10G11,Botrytis cinerea R16 [1]; assay as in Example 5 (FIG. 6),significant increase in antifungal activity
same,effect on preventing spore outgrowth,Botrytis cinerea R16 [3],sustained effect on preventing spore outgrowth
B4,antifungal activity of charge variants relative to 10G11,Botrytis cinerea R16 [1]; assay as in Example 5 (FIG. 6),significant increase in antifungal activity
same,increase in anti-fungal activity over 10G11,Botrytis cinerea R16 [1]; assay as in Example 5 (FIG. 6),up to 5 fold
same,effect on preventing spore outgrowth,Botrytis cinerea R16 [3],sustained effect on preventing spore outgrowth
B5,antifungal activity of charge variants relative to 10G11,Botrytis cinerea R16 [1]; assay as in Example 5 (FIG. 6),significant increase in antifungal activity
B6,antifungal activity of charge variants relative to 10G11,Botrytis cinerea R16 [1]; assay as in Example 5 (FIG. 6),on par antifungal activity with 10G11
B7,antifungal activity of charge variants relative to 10G11,Botrytis cinerea R16 [1]; assay as in Example 5 (FIG. 6),significant increase in antifungal activity
B8,antifungal activity of his-tagged variant relative to 10G11Q,Botrytis cinerea R16 [1]; assay as in Example 5 (FIG. 4),significantly improved anti-fungal activity
B9,binding to Fraction 3 by ELISA,Fraction 3,Fraction 3 binding
B10,antifungal activity among anti-glucosylceramide binding VHHs,Botrytis cinerea R16 [4],most prominent antifungal activity
B11,binding to Fraction 3 by ELISA,Fraction 3,Fraction 3 binding
